Assay results taken from paper PMC7057996, “Human glutaredoxin-1 can transfer copper to isolated metal binding domains of the P1B-type ATPase, ATP7B” (Scientific Reports, 2020).

Experiments:
[1] = molecular target: T1, ATP7B metal binding domains 5-6 (human, UniProt P35670 486-633); experiment: NMR titration; 15N-1H HSQC of apo-15N-hGrx1 (320-350 uM) titrated with unlabelled apo-Atox1 or apo-WLN5-6 to 2.0:1 (partner:hGrx1); no Cu; 4 °C; 10 mM MES/Na, 50 mM NaCl, 1 mM TCEP, pH 6.0; intensity changes of the Cys26 and Thr69 peaks fitted to a 1:1 binding model; conditions: both partners purified
T1 construct: Unlabelled apo protein in the NMR titrations; Cloned in pET-24d; also called WLN5-6; ATP7B MBDs 5-6; source: E. coli BL21 Codon Plus (DE3), purified (anion exchange, SEC)
T1 sequence (looked up): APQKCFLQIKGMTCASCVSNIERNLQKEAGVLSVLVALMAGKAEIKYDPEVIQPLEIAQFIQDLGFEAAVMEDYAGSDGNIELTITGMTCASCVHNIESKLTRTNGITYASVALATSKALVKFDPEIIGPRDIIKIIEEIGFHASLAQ

[2] = molecular target: T1, ATP7B metal binding domains 5-6; experiment: cell-based or functional assay

B1: human glutaredoxin-1 (enzyme)
chain: MAQEFVNCKIQPGKVVVFIKPTCPYCRRAQEILSQLPIKQGLLEFVDITATNHTNEIQDYLQQLTGARTVPRVFIGKDCIGGCSDLVSLQQSGELLTRLKQIGALQ
notes: human glutaredoxin-1 (hGrx1), UniProtKB P35754; printed as a 106-residue construct (excluding non-native residues left at the N-terminus by cleavage); 15N-labelled (or 13C/15N-labelled) for NMR; used as apo protein and loaded with Cu(I) (1:1); Non-native residues of the PreScission site remain at the N-terminus; also called hGrx1; Grx1; source: E. coli BL21 Codon Plus (DE3), purified (glutathione …)
B1 was tested, and the Kd [1] was 7 ± 4 µM and the “Cu(I) distribution WLN5-6:hGrx1/Atox1 after incubation of Cu(I)-hGrx1 with apo-Atox1 and apo-WLN5-6 at 1:1:1, SEC-ICP-MS” value [2] was ~9 ratio WLN5-6:hGrx1/Atox1.
